The values below come from paper PMC7039211, “Cryo-EM structure of the complete and ligand-saturated insulin receptor ectodomain” (The Journal of Cell Biology, 2019).

The data set deals with the molecule itself. Nature of the data set: cryo-EM structure; ~1.4 µM IR-ECD with ~40 µM insulin (28x molar excess), ~30 min at 4°C, HBS; no symmetry imposed; saturated state, 4.3 Å.

B1: human insulin receptor ectodomain protomer IRαβ0 (domain or fragment)
chain 1: HLYPGEVCPGMDIRNNLTRLHELENCSVIEGHLQILLMFKTRPEDFRDLSFPKLIMITDYLLLFRVYGLESLKDLFPNLTVIRGSRLFFNYALVIFEMVHLKELGLYNLMNITRGSVRIEKNNELCYLATIDWSRILDSVEDNYIVLNKDDNEECGDICPGTAKGKTNCPATVINGQFVERCWTHSHCQKVCPTICKSHGCTAEGLCCHSECLGNCSQPDDPTKCVACRNFYLDGRCVETCPPPYYHFQDWRCVNFSFCQDLHHKCKNSRRQGCHQYVIHNNKCIPECPSGYTMNSSNLLCTPCLGPCPKVCHLLEGEKTIDSVTSAQELRGCTVINGSLIINIRGGNNLAAELEANLGLIEEISGYLKIRRSYALVSLSFFRKLRLIRGETLEIGNYSFYALDNQNLRQLWDWSKHNLTITQGKLFFHYNPKLCLSEIHKMEEVSGTKGRQERNDIALKTNGDQASCENELLKFSYIRTSFDKILLRWEPYWPPDFRDLLGFMLFYKEAPYQNVTEFDGQDACGSNSWTVVDIDPPLRSNDPKSQNHPGWLMRGLKPWTQYAIFVKTLVTFSDERRTYGAKSDIIYVQTDATNPSVPLDPISVSNSSSQIILKWKPPSDPNGNITHYLVFWERQAEDSELFELDYCLKGLKLPSRTWSPPFESEDSQKHNQSEYEDSAGECCSCPKTDSQILKELEESSFRKTFEDYLHNVVFVPRPSRKRR
chain 2: SLGDVGNVTVAVPTVAAFPNTSSTSVPTSPEEHRPFEKVVNKESLVISGLRHFTGYRIELQACNQDTPEERCSVAAYVSARTMPEAKADDIVGPVTHEIFENNVVHLMWQEPKEPNGLIVLYEVSYRRYGDEELHLCVSRKHFALERGCRLRGLSPGNYSVRIRATSLAGNGSWTEPTYFYVTDYLDVPSNIAK
modifications: glycosylated | glycosylated
As to B1, the stoichiometry N (commonly a count of units in the complex or per binding partner) came to 2.
